Data on 9 molecules can be found in patent publication US20250296959A1, “B7-H3 TARGETING PEPTIDES AND CONSTRUCTS THEREOF” (Mariana Oncology Inc., priority 2024, published 2025).

The target of assay [1] is T1, Biotinylated human 4Ig B7-H3 (human, UniProt Q5ZPR3 29-461, limits assumed, biotinylated (site not stated)).
T1 construct: Protein captured on the SA chip for SPR; also called 4lg-B7-H3; B7-H3 isoform 4Ig
T1 sequence: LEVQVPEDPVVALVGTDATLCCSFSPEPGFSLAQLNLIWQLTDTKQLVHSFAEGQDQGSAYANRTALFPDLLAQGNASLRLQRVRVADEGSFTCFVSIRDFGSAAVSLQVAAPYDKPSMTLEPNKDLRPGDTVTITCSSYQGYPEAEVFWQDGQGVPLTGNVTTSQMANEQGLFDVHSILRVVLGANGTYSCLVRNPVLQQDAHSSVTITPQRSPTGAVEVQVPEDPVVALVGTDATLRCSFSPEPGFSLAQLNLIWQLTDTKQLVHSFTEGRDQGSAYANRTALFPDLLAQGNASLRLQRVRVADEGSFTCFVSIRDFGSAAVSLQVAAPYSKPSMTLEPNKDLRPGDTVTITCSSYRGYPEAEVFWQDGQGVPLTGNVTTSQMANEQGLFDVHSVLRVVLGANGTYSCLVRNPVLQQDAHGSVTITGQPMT
Put plainly: SPR 25C; C = 10<KD<=100 nM.

Assay [2] deals with Biotinylated human 4Ig B7-H3 (human) (UniProt Q5ZPR3). Put plainly: SPR 37C; C = 10<KD<=100 nM.
Assay [3] concerns the target T1, Biotinylated human 4Ig B7-H3. Put plainly: SPR 25C; B = 1.0<KD<=10 nM.
In assay [4] the target is T2, 2Ig B7-H3 (UniProt Q5ZPR3-2 29-245, limits assumed).
T2 construct: also called 2lg-B7-H3; B7-H3 isoform 2Ig
T2 sequence (looked up): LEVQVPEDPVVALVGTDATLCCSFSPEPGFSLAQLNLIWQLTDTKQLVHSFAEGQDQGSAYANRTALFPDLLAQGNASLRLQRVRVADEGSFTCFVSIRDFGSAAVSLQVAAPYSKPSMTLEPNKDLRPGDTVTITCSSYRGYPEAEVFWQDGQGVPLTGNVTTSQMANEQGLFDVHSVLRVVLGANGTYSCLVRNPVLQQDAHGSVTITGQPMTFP
Put plainly: SPR, 37C. A general note: Surface plasmon resonance follows binding to a sensor surface in real time, without labels.

Assay [5] has as its target T1, Biotinylated human 4Ig B7-H3. Description: SPR 25C; C = 10<KD<=100 nM. This is another data set of the same source.
The target is the same in assay [6]. Description: SPR 37C; C = 10<KD<=100 nM.
For assay [7], the target named is T2, 2Ig B7-H3. Description: SPR, 25C.
Assay [8] deals with T1, Biotinylated human 4Ig B7-H3. Put plainly: SPR 25C; A = KD<=1.0 nM.
Assay [9] shares this target. Description: SPR 37C; A = KD<=1.0 nM.
Assay [10] has the same target. Description: SPR 25C; D = 100<KD<=300 nM.
Assay [11] has the same target. Description: SPR 37C; D = 100<KD<=300 nM.

Starred links: 1 amine or outer side, 2 acyl side, 3 side chain; linkers in the order of their positions; H or OH if unused. Positions of bridges follow the written chain, without caps; N, C: chain ends. Non-standard residues stand in square brackets, D forms with d. *: point of attachment. Ala(piperidin-4-yl) = O=C([C@H](CC1CCN([*:3])CC1)N[*:1])[*:2]; DOTA = O=C(O)CN1CCN(CC(=O)O)CCN(CC(=O)*)CCN(CC(=O)O)CC1; Trp(5-F) = N[C@@H](Cc1c[nH]c2ccc(F)cc12)C(=O)O; Pro(cis-4-F) = O=C(O)[C@@H]1C[C@H](F)CN1; Ala(4-THP) = N[C@@H](CC1CCOCC1)C(=O)O; AEF = NCCOc1ccc(C[C@H](N)C(=O)O)cc1; Val(3-OH) = CC(C)(O)[C@H](N)C(=O)O; Hyp = O=C(O)[C@@H]1C[C@@H](O)CN1; 4Pal = N[C@@H](Cc1ccncc1)C(=O)O; aThr = C[C@H](O)[C@H](N)C(=O)O; Tle = CC(C)(C)[C@H](N)C(=O)O; hLeu = CC(C)CC[C@H](N)C(=O)O; Pip = O=C(O)[C@@H]1CCCCN1; Nle = CCCC[C@H](N)C(=O)O; Sar = CNCC(=O)O

B1: Cpd 269 (peptide)
peptide: Ac-[hLeu]YCIGK(DOTA)[4Pal]DVYC[Trp(5-F)]F[Pip]-NH2
modifications: disulfide 3-11
The molecule B1 came in with a KD in assay [1] of 10 to 100 nM.

B2: Cpd 322 (peptide)
peptide: Ac-[hLeu]YC[Tle]GK(DOTA)[Ala(4-THP)]DVYC[Trp(5-F)]F[Val(3-OH)]-OH
modifications: disulfide 3-11 (inferred)
As for B2, the KD in assay [2] fell in the range of 10 to 100 nM.

B3: Cpd 268 (peptide)
peptide: Ac-[hLeu]YCIGK(DOTA)[4Pal]DVYC[Trp(5-F)]F[Pro(cis-4-F)]-NH2
modifications: disulfide 3-11
As for B3, the KD in [3] is 1 to 10 nM. This molecule also gave a Kd in assay [4] of 7000 nM.

B4: Cpd 267 (peptide)
peptide: Ac-[hLeu]YCIGK(DOTA)[4Pal]DVYC[Trp(5-F)]F[Hyp]-NH2
modifications: disulfide 3-11
The molecule B4 displayed a KD in assay [1] of 10 to 100 nM.

B5: Cpd 26 (peptide)
peptide: Ac-[Nle]YCV[Sar]KYDVYCWF-NH2
modifications: disulfide 3-11
With B5, the KD in assay [5] and in assay [6] was 10 to 100 nM throughout.

B6: Cpd 301 (peptide)
peptide: Ac-[hLeu]YCVG[Ala(piperidin-4-yl)][AEF](DOTA)DVYC[Trp(5-F)]FP-NH2
modifications: disulfide 3-11
SMILES: CC(=O)N[C@@H](CCC(C)C)C(=O)N[C@@H](Cc1ccc(O)cc1)C(=O)N[C@H]1CSSC[C@@H](C(=O)N[C@@H](Cc2c[nH]c3ccc(F)cc23)C(=O)N[C@@H](Cc2ccccc2)C(=O)N2CCC[C@H]2C(N)=O)NC(=O)[C@H](Cc2ccc(O)cc2)NC(=O)[C@H](C(C)C)NC(=O)[C@H](CC(=O)O)NC(=O)[C@H](Cc2ccc(OCCNC(=O)CN3CCN(CC(=O)O)CCN(CC(=O)O)CCN(CC(=O)O)CC3)cc2)NC(=O)[C@H](CC2CCNCC2)NC(=O)CNC(=O)[C@H](C(C)C)NC1=O
On to B6, for which the Kd in [7] stood at 860 nM.

B7: Cpd 295 (peptide)
peptide: Ac-[hLeu]YCVGK[AEF](DOTA)DVYC[Trp(5-F)]FT-NH2
modifications: disulfide 3-11
SMILES: CC(=O)N[C@@H](CCC(C)C)C(=O)N[C@@H](Cc1ccc(O)cc1)C(=O)N[C@H]1CSSC[C@@H](C(=O)N[C@@H](Cc2c[nH]c3ccc(F)cc23)C(=O)N[C@@H](Cc2ccccc2)C(=O)N[C@H](C(N)=O)[C@@H](C)O)NC(=O)[C@H](Cc2ccc(O)cc2)NC(=O)[C@H](C(C)C)NC(=O)[C@H](CC(=O)O)NC(=O)[C@H](Cc2ccc(OCCNC(=O)CN3CCN(CC(=O)O)CCN(CC(=O)O)CCN(CC(=O)O)CC3)cc2)NC(=O)[C@H](CCCCN)NC(=O)CNC(=O)[C@H](C(C)C)NC1=O
As to B7, the KD in [8] and in assay [9] was at most 1 nM each time.

B8: Cpd 1 (peptide)
peptide: Ac-MYCVGKYDVYCWF-NH2
modifications: disulfide 3-11
SMILES: CSCC[C@H](NC(C)=O)C(=O)N[C@@H](Cc1ccc(O)cc1)C(=O)N[C@H]1CSSC[C@@H](C(=O)N[C@@H](Cc2c[nH]c3ccccc23)C(=O)N[C@@H](Cc2ccccc2)C(N)=O)NC(=O)[C@H](Cc2ccc(O)cc2)NC(=O)[C@H](C(C)C)NC(=O)[C@H](CC(=O)O)NC(=O)[C@H](Cc2ccc(O)cc2)NC(=O)[C@H](CCCCN)NC(=O)CNC(=O)[C@H](C(C)C)NC1=O
With B8, the KD in assay [10] and in assay [11] was 100 to 300 nM each time.

B9: Cpd 93 (peptide)
peptide: Ac-[Nle]YCVGKYDVYCWF[aThr][dK](DOTA)-NH2
modifications: disulfide 3-11
Turning to B9, the KD in [5] was in the range of 10 to 100 nM.

A word on the KD: it is the concentration at which binding is half-saturated. For orientation: Kd means the free concentration of one partner at which half of the binding sites on the other are occupied at equilibrium, for simple one-to-one binding. The low end stands for higher affinity, the high end for lower affinity.
